Assay results published in publication PMC8449659, “Depolymerization of biorefinery lignin by improved laccases of the white‐rot fungus Obba rivulosa” (Microbial Biotechnology, 2021).

B1: rOrLcc2-L497V (variant rOrLcc2-D206N) (Obba rivulosa; D227N/L518V) (protein)
chain: AIGPVTDLTITDVSISPDGFERAAVLAGGTFPGPLITGNIGDNFQINVVNQLSNETMLESTTIHWHGLFQKGTAWADGPAFVSQCPIATGNSFLYDFSVPDQAGTFWYHSHLATQYCDGLRGPLVVYDPNDAYLSDYDVDDDTTVITLADWYHTAATLGPRFPTQADATLINGLGRYSGGPESNLTVITVESGKRYRFRLVSISCNENYVFSIDDHEMIVIEADGVETQPVTVDSIQIFAAQRYSFILNATEAVDNYWIRATPDLGTTGFTDGINSAILRYVGANDTDPTTASNTTNLLSELDLHPLTNAAAPGAASQDPGSVDVSMNLELGFDGTNFTINGATFVPPTVPVLLQILSGAQSATDLLPSGSVFTLPSNSTVQVTLAAGTVAGGPHPFHLHGHTFSVVRSAGSDTYNYDNPVQRDTVSIGADGDNVTIRFDTNNPGPWFLHCHIDWHLNAGFAIVFAEDTADIASANPVPDSWSDLCPTYDALPSDEV
notes: codon-optimized cDNA in pPicZalphaA, C-terminal L497V to remove possible ER-retention signal SDEL, secreted from Pichia pastoris X-33, purified in two steps
B2: rOrLcc1 (variant rOrLcc1-D208N) (Obba rivulosa; D229N) (protein)
chain: AIGPVTDLVITDAFVTPDGPNLGREAVLAGGTFPGPLIQGNKGDNFQINVVNNLTNHTMLKTTSIHWHGLFQHGTNWADGPAFVNQCPIASGNSFLYNFNVPDQAGTFWYHSHLATQYCDGLRGPLVVYDPNDPYADLYDVDDESTVITLSDWYHAAASTLTFPTFDTTLINGLGRFAGTGGTDSDLAVITVEQGKRYRFRLAAISCNPNWVFSIDEHVMTIIEADAVNTLPLTVDAIQIFAAQRYSFVLNANQTVGNYWIRANPNNGNMGFANGINSAILRYSGATIEDPTTNSTIVNQLNEADLSPLTNPQAPGAPSQDPGAVDVAMNLAFSFNGTRLFINGVSFVPPSVPVLLQILSGSMTAQDLLPTGSVYTLPRNATVQISMPGNIIAGPHPFHLHGHTFSVIRSAGESDYNYDNPVQRDTVSIGGATDNVTIRFTTNNPGPWFLHCHIDWHLQAGFAIVFAEDTPDIASANPVPQAWSDLCPTYDALDPSDT
notes: codon-optimized cDNA in pPicZalphaA, secreted from Pichia pastoris X-33, purified in two steps

Substrate: COc1cccc(OC)c1O
Experiment: purified protein
Format: biochemical, Obba rivulosa
Details: O2 co-substrate, error is 95% confidence interval
[1] = pH 6.0, citrate phosphate buffer, 0-2 mM substrate
[2] = pH 3.5, citrate phosphate buffer, 0-31 mM substrate

Protein	Km [1]	Vmax [1]	kcat [1]	kcat/Km [1]	Km [2]	Vmax [2]	kcat [2]	kcat/Km [2]
B1	38 ± 0 µM	150 µM/min	112 s⁻¹	2.95e+06 M⁻¹ s⁻¹				
B2					3668 ± 270 µM	216 µM/min	44 s⁻¹	12000 M⁻¹ s⁻¹
